Source: patent US20180346602A1
Substitutions are numbered along the chain they refer to. Each block holds one binder with its values, some of them ahead of it.

What was measured:
[1] = target: anti-VEGF/ANG2 antibody (wild-type IgG1 subclass) (human) [IgG part: P01857]; assay: sandwich ELISA assay C; capture on SA plate; tracer FcγRI-Dig; analyte 2 ng/mL
[2] = target: anti-VEGF/ANG2 antibody (wild-type IgG1 subclass) (human) [IgG part: P01857]; assay: sandwich ELISA assay B; capture on SA plate; tracer M1.7.10-Dig; analyte 0 ng/mL (blank)
target antibodies [3] = assay: depletion of target antibody from sample; concentration before depletion 0.30 µg/mL
[4] = target: anti-VEGF/ANG2 antibody (wild-type IgG1 subclass) (human) [IgG part: P01857]; assay: sandwich ELISA assay C; capture on SA plate; tracer FcγRI-Dig; analyte 100 ng/mL
[5] = target: anti-VEGF/ANG2 antibody (wild-type IgG1 subclass) (human) [IgG part: P01857]; assay: sandwich ELISA assay B; capture on SA plate; tracer M1.7.10-Dig; analyte 6 ng/mL
target antibodies [6] = assay: depletion of target antibody from sample; concentration before depletion 1000.00 µg/mL
[7] = target: anti-VEGF/ANG2 antibody (wild-type IgG1 subclass) (human) [IgG part: P01857]; assay: sandwich ELISA assay B; capture on SA plate; tracer M1.7.10-Dig; analyte 13 ng/mL
[8] = target: anti-VEGF/ANG2 antibody (wild-type IgG1 subclass) (human) [IgG part: P01857]; assay: sandwich ELISA assay B; capture on SA plate; tracer M1.7.10-Dig; analyte 100 ng/mL
[9] = target: anti-Dig antibody (IgG1 subclass with mutations P329G/L234A/L235A) [IgG part: P01857]; assay: sandwich ELISA assay D; tracer M1.7.10-Dig; analyte conc. not printed (row 8 of 8)
[10] = target: anti-Dig antibody (IgG1 subclass with mutations P329G/L234A/L235A) [IgG part: P01857]; assay: sandwich ELISA assay D; tracer M1.7.10-Dig; analyte conc. not printed (row 7 of 8)
[11] = target: anti-VEGF/ANG2 antibody (IgG1 subclass with mutations P329G/L234A/L235A/I253A/H310A/H435A) [IgG part: P01857]; assay: sandwich ELISA assay E; tracer M1.7.10-Dig; analyte 1) at 1.5625 ng/mL
[12] = target: anti-VEGF/ANG2 antibody (IgG1 subclass with mutations P329G/L234A/L235A/I253A/H310A/H435A) [IgG part: P01857]; assay: sandwich ELISA assay E; tracer M1.7.10-Dig; analyte 1) at 25 ng/mL
[13] = target: anti-VEGF/ANG2 antibody (IgG1 subclass with mutations P329G/L234A/L235A/I253A/H310A/H435A) [IgG part: P01857]; assay: sandwich ELISA assay E; tracer M1.7.10-Dig; analyte 1) at 6.25 ng/mL
[14] = target: anti-Dig antibody (IgG1 subclass with mutations P329G/L234A/L235A) [IgG part: P01857]; assay: sandwich ELISA assay D; tracer M1.19.31-Dig; analyte conc. not printed (row 2 of 8)
[15] = target: anti-Dig antibody (IgG1 subclass with mutations P329G/L234A/L235A) [IgG part: P01857]; assay: sandwich ELISA assay D; tracer M1.19.31-Dig; analyte conc. not printed (row 5 of 8)
[16] = target: anti-Dig antibody (IgG1 subclass with mutations P329G/L234A/L235A) [IgG part: P01857]; assay: sandwich ELISA assay D; tracer M1.19.31-Dig; analyte conc. not printed (row 7 of 8)
[17] = target: anti-Dig antibody (IgG1 subclass with mutations P329G/L234A/L235A) [IgG part: P01857]; assay: sandwich ELISA assay D; tracer M1.7.10-Dig; analyte conc. not printed (row 2 of 8)
[18] = target: anti-Dig antibody (IgG1 subclass with mutations P329G/L234A/L235A) [IgG part: P01857]; assay: sandwich ELISA assay D; tracer M1.19.31-Dig; analyte conc. not printed (row 6 of 8)
[19] = target: anti-VEGF/ANG2 antibody (IgG1 subclass with mutations P329G/L234A/L235A/I253A/H310A/H435A) [IgG part: P01857]; assay: sandwich ELISA assay E; tracer M1.7.10-Dig; analyte 1) at 0 ng/mL (blank)
[20] = target: anti-Dig antibody (IgG1 subclass with mutations P329G/L234A/L235A) [IgG part: P01857]; assay: sandwich ELISA assay D; tracer M1.7.10-Dig; analyte conc. not printed (row 4 of 8)
[21] = target: anti-VEGF/ANG2 antibody (IgG1 subclass with mutations P329G/L234A/L235A) [IgG part: P01857]; assay: sandwich ELISA assay E; tracer M1.7.10-Dig; analyte 2) at 50 ng/mL
[22] = target: anti-VEGF/ANG2 antibody (IgG1 subclass with mutations P329G/L234A/L235A) [IgG part: P01857]; assay: sandwich ELISA assay E; tracer M1.7.10-Dig; analyte 2) at 1.5625 ng/mL
[23] = target: anti-VEGF/ANG2 antibody (IgG1 subclass with mutations P329G/L234A/L235A/I253A/H310A/H435A) [IgG part: P01857]; assay: sandwich ELISA assay E; tracer M1.7.10-Dig; analyte 1) at 100 ng/mL
[24] = target: anti-VEGF/ANG2 antibody (IgG1 subclass with mutations P329G/L234A/L235A/I253A/H310A/H435A) [IgG part: P01857]; assay: sandwich ELISA assay E; tracer M1.7.10-Dig; analyte 1) at 3.124 ng/mL

signal [OD405 nm] [1]: 0.077 OD405 nm
signal [OD405 nm] [2]: 0.037 OD405 nm
concentration after depletion (target antibodies [3]): 0.0001 µg/mL
recovery [%] (target antibodies [3]): 0.039%
signal [OD405 nm] [4]: 0.076 OD405 nm
signal [OD405 nm] [5]: 0.039 OD405 nm
concentration after depletion (target antibodies [6]): 0.0163 µg/mL
recovery [%] (target antibodies [6]): 0.002%
signal [OD405 nm] [7]: 0.046 OD405 nm
signal [OD405 nm] [8]: 0.061 OD405 nm
B1: anti-AAA variant Fc-region antibody M1.6.22 (antibody, V domains shown)
VH: EVQLVESGGDLVKPGGSLKLSCAASGFTFSSYGMSWVRQTPDKRLEWVATISSGGSYIYYPDSVKGRFTISRDNAKNTLYLQMSSLKSEDTAMYYCARLGMITTGYAMDYWGQGTSVTVSS
VL: DVLMTQTPLSLPVSLGDQASISCRSSQTIVHSTGHTYLEWFLQKPGQSPKLLIYKVSNRFSGVPDRFSGSGSGTDFTLKISRVEAEDLGVYYCFQGSHVPYTFGGGTKLEIK

signal 10% cynomolgus serum [OD405 nm] [9]: 0.044 OD405 nm
signal 10% human serum [OD405 nm] [9]: 2.51 OD405 nm
signal buffer [OD405 nm] [9]: 0.031 OD405 nm
signal 10% cynomolgus serum [OD405 nm] [10]: 0.052 OD405 nm
signal 10% human serum [OD405 nm] [10]: 2.53 OD405 nm
signal buffer [OD405 nm] [10]: 0.029 OD405 nm
signal [OD405 nm] [11]: 0.224 OD405 nm
signal [OD405 nm] [12]: 1.6 OD405 nm
concentration after depletion (target antibodies [3]): 0.0002 µg/mL
recovery [%] (target antibodies [3]): 0.065%
signal [OD405 nm] [13]: 0.677 OD405 nm
signal 10% cynomolgus serum [OD405 nm] [14]: 0.872 OD405 nm
signal 10% human serum [OD405 nm] [14]: 2.14 OD405 nm
signal buffer [OD405 nm] [14]: 0.041 OD405 nm
signal 10% cynomolgus serum [OD405 nm] [15]: 0.105 OD405 nm
signal 10% human serum [OD405 nm] [15]: 1.71 OD405 nm
signal buffer [OD405 nm] [15]: 0.036 OD405 nm
signal 10% cynomolgus serum [OD405 nm] [16]: 0.075 OD405 nm
signal 10% human serum [OD405 nm] [16]: 1.71 OD405 nm
signal buffer [OD405 nm] [16]: 0.033 OD405 nm
signal 10% cynomolgus serum [OD405 nm] [17]: 1.18 OD405 nm
signal 10% human serum [OD405 nm] [17]: 2.55 OD405 nm
signal buffer [OD405 nm] [17]: 0.038 OD405 nm
signal 10% cynomolgus serum [OD405 nm] [18]: 0.082 OD405 nm
signal 10% human serum [OD405 nm] [18]: 1.67 OD405 nm
signal buffer [OD405 nm] [18]: 0.033 OD405 nm
signal [OD405 nm] [19]: 0.027 OD405 nm
concentration after depletion (target antibodies [6]): 0.0169 µg/mL
recovery [%] (target antibodies [6]): 0.002%
signal 10% cynomolgus serum [OD405 nm] [20]: 0.194 OD405 nm
signal 10% human serum [OD405 nm] [20]: 2.48 OD405 nm
signal buffer [OD405 nm] [20]: 0.032 OD405 nm
signal [OD405 nm] [21]: 1.89 OD405 nm
signal [OD405 nm] [22]: 0.187 OD405 nm
signal [OD405 nm] [23]: 2.29 OD405 nm
signal [OD405 nm] [24]: 0.383 OD405 nm
B2: anti-variant (human) Fc-region antibody M1.3.17 (antibody, V domains shown)
VH: EVKLLESGGGLVQPGGSLKLSCAASGIDFRRYWMNWVRQAPGKGLEWIGEIDPDSSTINYTPSLKDKFIISRDNAKNTMYLQMRKVRSEDTALYYCARPYDYGAWFAYWGQGTLVTVSA
VL: QAVVTQESALTTSPGETVTLTCRSTTGAVTTSNYANWVQEKPDHLFTGLIGGTNKRAPGVPARFSGSLIGDKAALTITGAQTEDEAIYFCALWYSDHWVFGGGTKLTVL

signal 10% cynomolgus serum [OD405 nm] [9]: 0.031 OD405 nm
signal 10% human serum [OD405 nm] [9]: 2.45 OD405 nm
signal buffer [OD405 nm] [9]: 0.033 OD405 nm
signal [OD405 nm] [1]: 0.058 OD405 nm
signal 10% cynomolgus serum [OD405 nm] [10]: 0.041 OD405 nm
signal 10% human serum [OD405 nm] [10]: 2.44 OD405 nm
signal buffer [OD405 nm] [10]: 0.034 OD405 nm
signal [OD405 nm] [11]: 0.208 OD405 nm
signal [OD405 nm] [12]: 1.55 OD405 nm
signal [OD405 nm] [2]: 0.039 OD405 nm
signal [OD405 nm] [13]: 0.64 OD405 nm
signal 10% cynomolgus serum [OD405 nm] [14]: 1.17 OD405 nm
signal 10% human serum [OD405 nm] [14]: 2.04 OD405 nm
signal buffer [OD405 nm] [14]: 0.051 OD405 nm
signal [OD405 nm] [4]: 0.073 OD405 nm
signal 10% cynomolgus serum [OD405 nm] [15]: 0.078 OD405 nm
signal 10% human serum [OD405 nm] [15]: 1.33 OD405 nm
signal buffer [OD405 nm] [15]: 0.033 OD405 nm
signal [OD405 nm] [5]: 0.038 OD405 nm
signal 10% cynomolgus serum [OD405 nm] [16]: 0.039 OD405 nm
signal 10% human serum [OD405 nm] [16]: 1.39 OD405 nm
signal buffer [OD405 nm] [16]: 0.033 OD405 nm
signal 10% cynomolgus serum [OD405 nm] [17]: 1.41 OD405 nm
signal 10% human serum [OD405 nm] [17]: 2.61 OD405 nm
signal buffer [OD405 nm] [17]: 0.046 OD405 nm
signal 10% cynomolgus serum [OD405 nm] [18]: 0.049 OD405 nm
signal 10% human serum [OD405 nm] [18]: 1.36 OD405 nm
signal buffer [OD405 nm] [18]: 0.033 OD405 nm
signal [OD405 nm] [19]: 0.025 OD405 nm
signal 10% cynomolgus serum [OD405 nm] [20]: 0.223 OD405 nm
signal 10% human serum [OD405 nm] [20]: 2.46 OD405 nm
signal buffer [OD405 nm] [20]: 0.034 OD405 nm
signal [OD405 nm] [7]: 0.04 OD405 nm
signal [OD405 nm] [8]: 0.047 OD405 nm
signal [OD405 nm] [21]: 1.8 OD405 nm
signal [OD405 nm] [22]: 0.172 OD405 nm
signal [OD405 nm] [23]: 2.31 OD405 nm
signal [OD405 nm] [24]: 0.363 OD405 nm
B3: anti-variant (human) Fc-region antibody M1.7.24 (antibody, V domains shown)
VH: B2 VH with I27F, R30S, D52T, M79L, R84I, A97V, Y108S
VL: B2 VL with T25S, D96N
